This is an account of results in US20010041346A1, “METHOD FOR ASSAYING COMPOUNDS AFFECTING SMOOTH MUSCLE CONTRACTILE STATE” (priority 1999, published 2001).

For the assay, the target named is T1, cGK from human saphenous vein smooth muscle cell lysates (Homo sapiens, UniProt Q13976).
T1 construct: from tissue; host or cells: frozen human saphenous vein, homogenized
T1 sequence (Q13976 1-671): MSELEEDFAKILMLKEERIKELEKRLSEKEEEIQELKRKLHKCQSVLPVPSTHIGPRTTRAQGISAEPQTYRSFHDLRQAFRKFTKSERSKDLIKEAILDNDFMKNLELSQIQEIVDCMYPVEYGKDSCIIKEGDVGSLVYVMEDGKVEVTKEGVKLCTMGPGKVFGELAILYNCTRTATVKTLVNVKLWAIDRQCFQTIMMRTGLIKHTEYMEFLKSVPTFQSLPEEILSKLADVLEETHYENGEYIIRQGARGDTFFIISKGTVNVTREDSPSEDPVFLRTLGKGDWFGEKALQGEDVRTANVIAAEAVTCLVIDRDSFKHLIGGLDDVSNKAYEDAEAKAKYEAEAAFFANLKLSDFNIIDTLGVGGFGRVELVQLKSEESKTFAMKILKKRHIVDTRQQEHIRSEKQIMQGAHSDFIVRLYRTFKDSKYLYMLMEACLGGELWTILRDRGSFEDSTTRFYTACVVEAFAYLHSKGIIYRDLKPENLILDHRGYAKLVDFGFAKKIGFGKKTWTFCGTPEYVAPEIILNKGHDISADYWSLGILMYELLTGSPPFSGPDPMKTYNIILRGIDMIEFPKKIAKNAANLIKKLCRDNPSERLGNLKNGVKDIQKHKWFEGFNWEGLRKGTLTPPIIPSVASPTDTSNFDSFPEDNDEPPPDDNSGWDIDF
The assay is described as follows: GST-fusion protein binding, immunoblot for cGK. The settings on record: GST pulldown, immunoblotting with anti-cGK antibody. The procedure: Lysates were centrifuged for 15 minutes at 4° C. in a microfuge, and the supernatant was incubated with 100 μl of GST or GST-fusion protein beads overnight, followed by washing in RIPA buffer containing 1% NP40, and boiling for 5 minutes in SDS sample buffer. Associated proteins were resolved by SDS-PAGE and transferred to nitrocellulose, which was blocked in PBS with 0.05% Tween 20 and 5% milk. Primary antibody incubation with rabbit polyclonal anti-human cGPK-CT (Upstate Biotechnology, Lake Placid, N.Y.) was carried out at 1:2000 dilution and rabbit polyclonal anti-MBS antibody (Berkeley Antibody Company, Richmond, Calif.) at 1:1600 dilution in blocking buffer for one hour at room temperature, followed by secondary antibody incubation with anti-rabbit horseradish peroxidase-conjugated IgG (Amersham Life Science, Arlington Heights, Ill.) at 1:500 in blocking buffer. The membranes were developed with ECL (Amersham Life Science, Arlington Heights, Ill.).
The 586 base pair cDNA insert from AL9, the 177 base pair N-terminal cGK1α truncation mutant, cGK1α1-59, the N-terminal 274 base pairs of cGKIβ, and the N-terminal 816 base pairs of cGKII were cloned into pGEX (Pharmacia Biotech, Piscataway, N.J.). GST fusion proteins were expressed in bacterial strain BL21 (Stratagene, La Jolla, Calif.) according to standard techniques. […]
(In general: A western blot detects proteins with antibodies after separation by electrophoresis.)

B1: MBS1-690: 690 amino acid N-terminal half of MBS (protein, UniProt O14974 1-690, looked up, fragment)
chain: MKMADAKQKRNEQLKRWIGSETDLEPPVVKRQKTKVKFDDGAVFLAACSSGDTDEVLKLLHRGADINYANVDGLTALHQACIDDNVDMVKFLVENGANINQPDNEGWIPLHAAASCGYLDIAEFLIGQGAHVGAVNSEGDTPLDIAEEEAMEELLQNEVNRQGVDIEAARKEEERIMLRDARQWLNSGHINDVRHAKSGGTALHVAAAKGYTEVLKLLIQAGYDVNIKDYDGWTPLHAAAHWGKEEACRILVDNLCDMEMVNKVGQTAFDVADEDILGYLEELQKKQNLLHSEKRDKKSPLIESTANMDNNQSQKTFKNKETLIIEPEKNASRIESLEQEKVDEEEEGKKDESSCSSEEDEEDDSESEAETDKTKPLASVTNANTSSTQAAPVAVTTPTVSSGQATPTSPIKKFPTTATKISPKEEERKDESPATWRLGLRKTGSYGALAEITASKEGQKEKDTAGVTRSASSPRLSSSLDNKEKEKDSKGTRLAYVAPTIPRRLASTSDIEEKENRDSSSLRTSSSYTRRKWEDDLKKNSSVNEGSTYHKSCSFGRRQDDLISSSVPSTTSTPTVTSAAGLQKSLLSSTSTTTKITTGSSSAGTQSSTSNRLWAEDSTEKEKDSVPTAVTIPVAPTVVNAAASTTTLTTTTAGTVSSTTEVRERRRSYLTPVRDEESESQRKARSRQAR
As to B1, the “binding of cGK from smooth muscle cell lysates” value is given as “no interaction with cGK”.
